In patent US5831003A, “Peptides which bind to prothrombin and thrombin” (Bayer Corporation, priority 1996, dated 1998):
Ends that are not written are not given here.

Experiments:
α-thrombin [1] = target: T1, α-thrombin (Homo sapiens, UniProt P00734); test: Confirmatory binding assay in column chromatographic format, peptides synthesized on A-Totda-Toyopearl; conditions: for binding of thrombin to peptide resin (in words): summary of Table 2; for dose dependence of thrombin in the acid eluant (in words): 50, 100 and 200 μg α-thrombin
T1 construct: α-Thrombin is the active form of the plasma serine protease zymogen, prothrombin; purchased Enzyme Research Labs (South Bend, Ind.)
Protocol: Confirmatory binding assays were performed in a column chromatographic format on a microbore HPLC using individual peptide sequences synthesized directly onto the Toyopearl 650 M Chelate resin which had been modified with Totda followed by an alanine residue (A-Totda-Toyopearl), at a final substitution density of 0.2 mmol/g resin. […] The endpoint was a dose-dependent increase in the acid eluate in the thrombin contactings, and quantification was by integration of the absorbance at 280 nm.

α-thrombin [2] = target: T1, α-thrombin; test: Purification of α-thrombin from activated PTC eluate on YFPGPYL-Totda-Toyopearl; type: binding
Protocol: Human pooled plasma was processed to PTC eluate by standard manufacturing procedures as indicated in Example 1. A sample of the PTC eluate was activated in the presence of 50 mM CaCl2 for 6 days at 4° C. Approximately 1 ml of the activated PTC eluate, spiked with 300 μg α-thrombin, was injected onto the peptide resin YFPGPYL-Totda-Toyopearl (FIG. 6). The column was washed with equilibration buffer (10 mM HEPES, pH 6.5, 10 mM CaCl2, 500 mM NaCl, 0.1% (v/v) PEG-400) until the A280 returned to base-line. […] Acid treatment (2% acetic acid) was used as a cleaning step to remove protein still bound to the column.

[3] = 50 μg α-thrombin applied, integration of A280
[4] = 100 μg α-thrombin applied, integration of A280
[5] = 200 μg α-thrombin applied, integration of A280

| Absorbance, 280 nm 1M NaCl Eluate (α-thrombin [1]; [3]) | Absorbance, 280 nm 2% Acetic Acid (α-thrombin [1]; [3]) | Absorbance, 280 nm 1M NaCl Eluate (α-thrombin [1]; [4]) | Absorbance, 280 nm 2% Acetic Acid (α-thrombin [1]; [4]) | Absorbance, 280 nm 1M NaCl Eluate (α-thrombin [1]; [5]) | Absorbance, 280 nm 2% Acetic Acid (α-thrombin [1]; [5]) | binding of thrombin to peptide resin (in words) (α-thrombin [1]) | Absorbance, 280 nm 2% Acetic Acid (α-thrombin [1]; 50 μg α-thrombin applied in a solution containing 5 mg/ml hSA) | Absorbance, 280 nm 2% Acetic Acid (α-thrombin [1]; 100 μg α-thrombin applied in a solution containing 5 mg/ml hSA) | Absorbance, 280 nm 2% Acetic Acid (α-thrombin [1]; 200 μg α-thrombin applied in a solution containing 5 mg/ml hSA) | dose dependence of thrombin in the acid eluant (in words) (α-thrombin [1]) | thrombin content of protein released by 1 mM sodium citrate pH 7.0 (α-thrombin [2]; quantitative scanning of SDS-PAGE, activated PTC eluate spiked with 300 μg α-thrombin) | binding of thrombin from activated PTC eluate (in words) (α-thrombin [2]; released by 1 mM sodium citrate pH 7.0) | Substance |
| --- | --- | --- | --- | --- | --- | --- | --- | --- | --- | --- | --- | --- | --- |
| np | 0.75 | np | 1.49 | np | 2.83 | enhanced binding |  |  |  |  |  |  | RQLWQSH [RQLWGSH, variant of QLWGSH with added amino-terminal arginine, on A-Totda-Toyopearl resin] |
|  |  |  |  |  |  | bound thrombin | 2.10 | 2.93 | 4.72 | dose dependent increase | at least 72% | thrombin bound | YFPGPYL (not fully specified (C-terminus)) |
| np | 2.82 | np | 2.14 | np | 3.32 | bound thrombin |  |  |  | not in a dose dependent manner |  |  | PFPYVW (not fully specified (C-terminus)) [peptide synthesized on A-Totda-Toyopearl resin] |
| 0.00 | 0.00 | 0.18 | 0.00 | 0.69 | 0.00 | not |  |  |  |  |  |  | ERPYHG (not fully specified (C-terminus)) [peptide synthesized on A-Totda-Toyopearl resin] |
| 0.12 | 0.41 | 0.15 | 0.77 | 0.25 | 1.71 | bound thrombin |  |  |  |  |  |  | GFRKGP (not fully specified (C-terminus)) [peptide synthesized on A-Totda-Toyopearl resin] |
| np | 0.47 | np | 0.79 | np | 1.37 | bound thrombin |  |  |  |  |  |  | PFPYGW (not fully specified (C-terminus)) [peptide synthesized on A-Totda-Toyopearl resin] |
| 0.23 | 0.41 | 0.23 | 0.99 | 0.26 | 2.38 | bound thrombin |  |  |  |  |  |  | ERPYKG (not fully specified (C-terminus)) [peptide synthesized on A-Totda-Toyopearl resin] |
| 0.16 | 1.48 | 0.18 | 1.57 | np | 3.59 | bound thrombin |  |  |  |  |  |  | VFPYAW (not fully specified (C-terminus)) [peptide synthesized on A-Totda-Toyopearl resin] |
| np | 0.00 | np | 0.00 | np | 0.00 |  |  |  |  |  |  |  | LTPFAV (not fully specified (C-terminus)) [peptide synthesized on A-Totda-Toyopearl resin] |
| np | 0.81 | np | 1.21 | np | 1.81 | bound thrombin |  |  |  |  |  |  | VFPYVW (not fully specified (C-terminus)) [peptide synthesized on A-Totda-Toyopearl resin] |
| np | 0.16 | np | 0.28 | np | 0.34 | bound thrombin |  |  |  |  |  |  | YTPFAV (not fully specified (C-terminus)) [peptide synthesized on A-Totda-Toyopearl resin] |
| 0.00 | 0.15 | 0.00 | 0.29 | 0.10 | 0.45 | bound thrombin |  |  |  |  |  |  | FEPANP (not fully specified (C-terminus)) [peptide synthesized on A-Totda-Toyopearl resin] |
| np | 0.00 | np | 0.00 | np | 0.00 |  |  |  |  |  |  |  | VTPFAV (not fully specified (C-terminus)) [peptide synthesized on A-Totda-Toyopearl resin] |
| np | 0.88 | np | 1.46 | np | 2.01 | bound thrombin |  |  |  |  |  |  | VFPYGW (not fully specified (C-terminus)) [peptide synthesized on A-Totda-Toyopearl resin] |
| 0.00 | 0.71 | 0.00 | 1.42 | 0.13 | 2.73 | bound thrombin |  |  |  |  |  |  | GFRNGP [GERNGP] |
| np | 0.57 | np | 0.71 | np | 2.06 | bound thrombin |  |  |  |  |  |  | SVRPFL (not fully specified (C-terminus)) [peptide synthesized on A-Totda-Toyopearl resin] |
| np | np | np | np | np | np | not |  |  |  |  |  |  | PFAPTL |
| np | 0.50 | np | 1.05 | np | 1.10 | bound thrombin |  |  |  |  |  |  | PFPYAW (not fully specified (C-terminus)) [peptide synthesized on A-Totda-Toyopearl resin] |
| np | 0.58 | np | 0.95 | np | 1.76 | enhanced binding |  |  |  |  |  |  | HQLWGSH |
| np | 0.18 | np | 0.44 | np | 1.25 | bound thrombin |  |  |  |  |  |  | LFAPTL |
